The values that follow come from US20230348867.

What all share (assay): cell_activity
Series [1] concerns SB100X (Variant 27) K14R,K33A,R115H,R214D,K215A,E216V,N217Q,M243H,T314N (synthetic). The following applies: human CD34+ HSC, GFP+ CFU-E.
Series [2] relates to SB Variant 7 (12B1) K14R,T83A,M243Q (synthetic). The settings on record: HeLa transposition.
For series [3], the system named is SB Variant 15 K14R,K30R,R147E,A205K,H207V,K208R,D210E,R214D,K215A,E216V,N217Q,M243H (synthetic). The settings on record: HeLa transposition.
Series [4] concerns SB Variant 4 K13D,K33A,T83A,H207V,K208R,D210E,M243Q (synthetic). The following applies: HeLa transposition.
The test system of series [5] is SB M3a (Variant 30) K13A,K33A,T83A,R214D,K215A,E216V,N217Q (synthetic). The following applies: HeLa transposition.
For series [6], the system named is SB Variant 1 (2G6/6G2) K14R,R214D,K215A,E216V,N217Q (synthetic). The settings on record: HeLa transposition.
Series [7] relates to SB Variant 21 K14R,K30R,R143L,A205K,H207V,K208R,D210E,R214D,K215A,E216V,N217Q,M243H,E267D (synthetic). The settings on record: HeLa transposition.
The test system of series [8] is SB Variant 12 K14R,T83A,M243Q,T314N (synthetic). The following applies: HeLa transposition.
In series [9] the test system is SB Variant 3 (6A5) K14R,K30R,A205K,H207V,K208R,D210E,R214D,K215A,E216V,N217Q,M243H (synthetic). The settings on record: HeLa transposition.
The test system of series [10] is SB10 Sleeping Beauty transposase (synthetic (reconstructed from fish)). The settings on record: HeLa transposition, G418 colonies, reference.
In series [11] the test system is SB Variant 2 (3D5) K33A,R115H,R214D,K215A,E216V,N217Q,M243H (synthetic). The following applies: HeLa transposition.
In series [12] the test system is SB Variant 14 K14R,K30R,R143L,A205K,H207V,K208R,D210E,R214D,K215A,E216V,N217Q,M243H (synthetic). The settings on record: HeLa transposition.
Series [13] deals with SB Variant 18 K14R,K30R,A205K,H207V,K208R,D210E,R214D,K215A,E216V,N217Q,M243H,G317E (synthetic). The settings on record: HeLa transposition.
Series [14] relates to SB Variant 8 K14R,T83A,I100L,M243Q (synthetic). The following applies: HeLa transposition.
For series [15], the system named is SB Variant 6 K33A,T83A,R214D,K215A,E216V,N217Q,G317E (synthetic). The settings on record: HeLa transposition.
The subject of series [16] is SB Variant 23 K14R,K30R,R143L,A205K,H207V,K208R,D210E,R214D,K215A,E216V,N217Q,M243H,G317E (synthetic). The following applies: HeLa transposition.
Series [17] deals with SB Variant 16 K14R,K30R,A205K,H207V,K208R,D210E,R214D,K215A,E216V,N217Q,M243H,E267D (synthetic). The following applies: HeLa transposition.
Series [18] relates to SB Variant 20 K14R,K30R,R147E,A205K,H207V,K208R,D210E,R214D,K215A,E216V,N217Q,M243H,T314N (synthetic). The following applies: HeLa transposition.
Series [19] relates to SB Variant 5 K13A,K33A,R214D,K215A,E216V,N217Q (synthetic). The following applies: HeLa transposition.
In series [20] the test system is SB Variant 17 K14R,K30R,A205K,H207V,K208R,D210E,R214D,K215A,E216V,N217Q,M243H,T314N (synthetic). The settings on record: HeLa transposition.

The substance pT2-HB-CAG-GFP SB transposon had a binding signal in series [1] of 100 fold vs SB10.

On to “pTNeo (SB inverted repeats flanking NeoR)”, for which the binding signal worked out at 15 fold vs SB10 in series [2]; 30 fold vs SB10 in [3]; 20 fold vs SB10 in series [4]; 10 fold vs SB10 in series [5]; 20 fold vs SB10 in series [6]; 50 fold vs SB10 in series [7]. In addition, the binding signal in [8] is 10 fold vs SB10; in series [9], 30 fold vs SB10; in [10], 1 fold vs SB10; in [11] it was 30 fold vs SB10; in [12], 40 fold vs SB10; in series [13], 25 fold vs SB10. Besides, the binding signal turned out to be 5 fold vs SB10 in [14]; 20 fold vs SB10 in series [15]; 35 fold vs SB10 in [16]; 30 fold vs SB10 in series [17]; 40 fold vs SB10 in series [18]; 20 fold vs SB10 in series [19]. In [20], this substance returned a binding signal of 25 fold vs SB10.
